Experimental data published in US10087225B2, “Formulation of MK2 inhibitor peptides” (MOERAE MATRIX, INC., priority 2015, dated 2018).

Tests used:
Assay in all cases: Kinase Profiling Assay
Type in all cases: biochemical
IR(h), activated = IR(h), activated (Homo sapiens, UniProt P06213)
MINK(h) = MINK(h) (Homo sapiens, UniProt Q8N4C8)
PrKX(h) = target: T1, PrKX(h) (Homo sapiens, UniProt P51817)
T1 sequence (P51817 1-358): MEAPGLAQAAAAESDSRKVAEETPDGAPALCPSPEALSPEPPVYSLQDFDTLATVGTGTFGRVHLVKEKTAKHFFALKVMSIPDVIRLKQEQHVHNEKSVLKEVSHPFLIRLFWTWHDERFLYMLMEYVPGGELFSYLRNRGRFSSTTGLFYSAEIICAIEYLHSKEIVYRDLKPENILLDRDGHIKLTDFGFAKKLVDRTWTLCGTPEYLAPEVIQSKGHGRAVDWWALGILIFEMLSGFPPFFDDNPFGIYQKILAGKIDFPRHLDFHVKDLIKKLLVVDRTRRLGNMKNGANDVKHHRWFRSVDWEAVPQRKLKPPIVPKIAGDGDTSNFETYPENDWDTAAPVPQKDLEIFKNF

CDK6/cyclinD3(h) = CDK6/cyclinD3(h) (Homo sapiens, UniProt Q00534); details: 100 μM
Fyn(h) = Fyn(h) (Homo sapiens, UniProt P06241); details: 100 μM
MST1(h) = target: T2, MST1(h) (Homo sapiens, UniProt Q13043); details: 100 μM
T2 sequence (Q13043 1-487): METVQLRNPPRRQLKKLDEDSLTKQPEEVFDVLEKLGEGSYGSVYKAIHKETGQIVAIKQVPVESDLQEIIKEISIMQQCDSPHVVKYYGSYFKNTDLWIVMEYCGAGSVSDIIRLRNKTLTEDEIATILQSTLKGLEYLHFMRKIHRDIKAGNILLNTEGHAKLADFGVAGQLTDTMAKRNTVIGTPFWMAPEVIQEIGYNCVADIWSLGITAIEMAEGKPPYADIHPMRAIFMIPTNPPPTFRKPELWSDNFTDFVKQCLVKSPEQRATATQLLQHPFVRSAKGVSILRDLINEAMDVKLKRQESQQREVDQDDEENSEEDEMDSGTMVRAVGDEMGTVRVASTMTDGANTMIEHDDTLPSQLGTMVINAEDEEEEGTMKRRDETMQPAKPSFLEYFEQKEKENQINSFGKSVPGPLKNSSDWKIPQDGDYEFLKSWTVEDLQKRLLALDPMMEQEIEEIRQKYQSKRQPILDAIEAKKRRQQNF

GSK3β(h) = GSK3β(h) (Homo sapiens, UniProt P49841); details: 100 μM
PKBα(h) = PKBα(h) (Homo sapiens, UniProt P31749); details: 100 μM
Lyn(h) = Lyn(h) (Homo sapiens, UniProt P07948); details: 100 μM
FAK(h) = FAK(h) (Homo sapiens, UniProt Q05397); details: 100 μM
PKCϵ(h) = target: T3, PKCϵ(h) (Homo sapiens, UniProt Q02156); details: 100 μM
T3 sequence (Q02156 1-737): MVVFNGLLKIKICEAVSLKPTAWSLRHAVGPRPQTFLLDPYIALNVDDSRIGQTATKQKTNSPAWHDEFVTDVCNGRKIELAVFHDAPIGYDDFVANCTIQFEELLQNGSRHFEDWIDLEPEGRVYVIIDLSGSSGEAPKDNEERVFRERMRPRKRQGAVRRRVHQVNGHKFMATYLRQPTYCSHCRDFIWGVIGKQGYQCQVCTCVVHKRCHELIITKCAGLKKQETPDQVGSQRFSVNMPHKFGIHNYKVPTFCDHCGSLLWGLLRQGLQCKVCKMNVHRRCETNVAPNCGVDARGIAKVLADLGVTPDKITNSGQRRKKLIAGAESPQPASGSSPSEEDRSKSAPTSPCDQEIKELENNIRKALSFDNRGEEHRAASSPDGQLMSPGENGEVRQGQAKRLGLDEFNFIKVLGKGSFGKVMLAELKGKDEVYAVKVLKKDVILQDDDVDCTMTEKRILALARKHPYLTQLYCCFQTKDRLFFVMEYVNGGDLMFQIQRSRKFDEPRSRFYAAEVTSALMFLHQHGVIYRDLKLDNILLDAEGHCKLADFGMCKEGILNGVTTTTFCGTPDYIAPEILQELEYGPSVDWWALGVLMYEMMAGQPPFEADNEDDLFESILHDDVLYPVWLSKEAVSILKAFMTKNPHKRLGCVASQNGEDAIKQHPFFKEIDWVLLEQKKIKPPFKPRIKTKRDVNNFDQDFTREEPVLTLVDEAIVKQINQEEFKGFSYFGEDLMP

NEK11(h) = target: T4, NEK11(h) (Homo sapiens, UniProt Q8NG66); details: 100 μM
T4 sequence (Q8NG66 1-645): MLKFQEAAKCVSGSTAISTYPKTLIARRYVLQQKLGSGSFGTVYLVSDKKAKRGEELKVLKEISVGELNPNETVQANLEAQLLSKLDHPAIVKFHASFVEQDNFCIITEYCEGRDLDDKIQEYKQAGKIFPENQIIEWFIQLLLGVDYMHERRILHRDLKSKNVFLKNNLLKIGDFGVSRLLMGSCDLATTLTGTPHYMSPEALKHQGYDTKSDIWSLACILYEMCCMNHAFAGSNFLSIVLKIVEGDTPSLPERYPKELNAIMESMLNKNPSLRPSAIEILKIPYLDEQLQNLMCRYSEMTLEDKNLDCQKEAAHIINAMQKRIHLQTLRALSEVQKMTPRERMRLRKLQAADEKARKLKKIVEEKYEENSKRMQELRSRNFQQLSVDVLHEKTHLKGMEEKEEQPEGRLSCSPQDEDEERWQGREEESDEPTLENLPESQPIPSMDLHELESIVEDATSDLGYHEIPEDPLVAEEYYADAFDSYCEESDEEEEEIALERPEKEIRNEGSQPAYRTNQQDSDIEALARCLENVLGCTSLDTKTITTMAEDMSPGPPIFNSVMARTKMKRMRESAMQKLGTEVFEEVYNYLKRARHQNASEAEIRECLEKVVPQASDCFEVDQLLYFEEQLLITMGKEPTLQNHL

PKCβI(h) = PKCβI(h) (Homo sapiens, UniProt P05771); details: 100 μM
PKCβI(h), sequence (P05771 whole entry): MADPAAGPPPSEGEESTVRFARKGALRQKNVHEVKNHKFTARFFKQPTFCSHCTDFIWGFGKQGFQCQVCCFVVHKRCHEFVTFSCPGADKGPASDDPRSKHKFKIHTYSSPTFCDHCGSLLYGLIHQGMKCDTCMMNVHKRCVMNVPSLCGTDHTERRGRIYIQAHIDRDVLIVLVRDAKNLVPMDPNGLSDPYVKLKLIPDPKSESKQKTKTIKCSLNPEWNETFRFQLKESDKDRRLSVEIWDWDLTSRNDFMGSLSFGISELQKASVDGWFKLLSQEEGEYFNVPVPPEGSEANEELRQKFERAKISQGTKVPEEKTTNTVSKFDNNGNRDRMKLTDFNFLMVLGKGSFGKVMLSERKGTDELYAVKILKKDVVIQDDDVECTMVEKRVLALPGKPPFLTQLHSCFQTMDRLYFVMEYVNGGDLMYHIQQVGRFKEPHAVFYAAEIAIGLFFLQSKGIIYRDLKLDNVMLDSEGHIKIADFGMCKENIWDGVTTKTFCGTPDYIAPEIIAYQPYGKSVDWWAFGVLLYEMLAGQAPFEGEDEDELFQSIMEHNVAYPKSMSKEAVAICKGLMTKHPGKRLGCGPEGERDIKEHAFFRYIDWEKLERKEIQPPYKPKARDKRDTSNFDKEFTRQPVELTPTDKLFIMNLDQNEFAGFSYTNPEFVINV

MINK(h), sequence (Q8N4C8 whole entry): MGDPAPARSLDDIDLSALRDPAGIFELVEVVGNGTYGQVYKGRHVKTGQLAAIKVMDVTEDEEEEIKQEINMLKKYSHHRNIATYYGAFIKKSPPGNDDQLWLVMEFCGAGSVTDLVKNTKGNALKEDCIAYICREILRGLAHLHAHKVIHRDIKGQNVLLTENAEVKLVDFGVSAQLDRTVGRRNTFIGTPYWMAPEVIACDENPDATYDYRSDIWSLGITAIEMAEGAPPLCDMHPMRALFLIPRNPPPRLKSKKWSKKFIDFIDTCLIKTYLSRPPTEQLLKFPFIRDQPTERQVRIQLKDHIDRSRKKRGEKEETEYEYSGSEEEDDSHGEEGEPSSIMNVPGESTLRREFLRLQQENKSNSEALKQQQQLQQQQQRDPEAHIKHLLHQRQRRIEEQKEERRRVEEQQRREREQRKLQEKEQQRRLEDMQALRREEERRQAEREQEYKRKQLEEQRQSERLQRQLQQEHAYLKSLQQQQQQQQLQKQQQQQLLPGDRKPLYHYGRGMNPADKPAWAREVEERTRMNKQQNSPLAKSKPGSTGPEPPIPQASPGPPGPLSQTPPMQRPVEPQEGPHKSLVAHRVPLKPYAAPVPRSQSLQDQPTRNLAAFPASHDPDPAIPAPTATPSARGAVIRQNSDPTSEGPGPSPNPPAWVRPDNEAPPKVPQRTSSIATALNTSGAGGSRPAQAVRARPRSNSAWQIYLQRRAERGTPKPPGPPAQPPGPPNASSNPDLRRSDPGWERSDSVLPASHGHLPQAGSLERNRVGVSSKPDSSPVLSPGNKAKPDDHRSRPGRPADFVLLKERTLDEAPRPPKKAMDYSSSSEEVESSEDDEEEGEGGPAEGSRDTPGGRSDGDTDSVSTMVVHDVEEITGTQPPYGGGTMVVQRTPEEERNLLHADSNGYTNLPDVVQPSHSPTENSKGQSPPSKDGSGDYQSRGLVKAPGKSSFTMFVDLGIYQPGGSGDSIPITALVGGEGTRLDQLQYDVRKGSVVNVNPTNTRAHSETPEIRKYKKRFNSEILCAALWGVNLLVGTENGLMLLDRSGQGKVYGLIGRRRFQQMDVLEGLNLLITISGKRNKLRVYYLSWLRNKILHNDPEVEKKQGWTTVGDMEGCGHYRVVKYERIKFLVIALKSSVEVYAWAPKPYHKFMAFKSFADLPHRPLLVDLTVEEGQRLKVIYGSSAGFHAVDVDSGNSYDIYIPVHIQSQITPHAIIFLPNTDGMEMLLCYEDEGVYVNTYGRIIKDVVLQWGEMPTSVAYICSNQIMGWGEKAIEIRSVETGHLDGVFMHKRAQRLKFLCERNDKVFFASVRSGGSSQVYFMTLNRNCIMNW
FAK(h), sequence (Q05397 whole entry): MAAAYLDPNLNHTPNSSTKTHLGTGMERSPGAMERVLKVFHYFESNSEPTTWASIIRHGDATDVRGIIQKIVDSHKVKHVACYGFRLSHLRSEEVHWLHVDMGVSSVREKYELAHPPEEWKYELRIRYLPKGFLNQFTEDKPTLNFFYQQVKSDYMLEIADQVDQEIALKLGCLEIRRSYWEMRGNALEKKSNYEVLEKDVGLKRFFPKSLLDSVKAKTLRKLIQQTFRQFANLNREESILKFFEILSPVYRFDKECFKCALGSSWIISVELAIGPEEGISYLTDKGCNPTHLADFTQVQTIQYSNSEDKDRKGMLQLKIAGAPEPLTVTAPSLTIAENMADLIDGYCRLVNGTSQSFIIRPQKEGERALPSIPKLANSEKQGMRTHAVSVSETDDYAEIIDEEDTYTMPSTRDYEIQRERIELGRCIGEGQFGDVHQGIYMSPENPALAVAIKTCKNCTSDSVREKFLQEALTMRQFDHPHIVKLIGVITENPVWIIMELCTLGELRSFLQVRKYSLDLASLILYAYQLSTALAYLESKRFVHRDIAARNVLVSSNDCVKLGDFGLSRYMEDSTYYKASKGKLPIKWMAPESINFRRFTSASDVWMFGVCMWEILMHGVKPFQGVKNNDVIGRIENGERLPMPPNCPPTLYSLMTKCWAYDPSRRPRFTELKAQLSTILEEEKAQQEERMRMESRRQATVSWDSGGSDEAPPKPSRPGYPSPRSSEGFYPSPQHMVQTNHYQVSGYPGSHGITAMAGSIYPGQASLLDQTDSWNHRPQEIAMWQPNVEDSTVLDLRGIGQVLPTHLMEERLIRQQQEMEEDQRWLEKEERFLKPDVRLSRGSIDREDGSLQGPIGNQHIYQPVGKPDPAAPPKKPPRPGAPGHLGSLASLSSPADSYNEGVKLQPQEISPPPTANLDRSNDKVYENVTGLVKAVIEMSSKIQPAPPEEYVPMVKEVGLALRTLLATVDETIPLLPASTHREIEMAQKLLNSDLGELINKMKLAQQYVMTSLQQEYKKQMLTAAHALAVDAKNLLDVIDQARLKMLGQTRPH
PKBα(h), sequence (P31749 whole entry): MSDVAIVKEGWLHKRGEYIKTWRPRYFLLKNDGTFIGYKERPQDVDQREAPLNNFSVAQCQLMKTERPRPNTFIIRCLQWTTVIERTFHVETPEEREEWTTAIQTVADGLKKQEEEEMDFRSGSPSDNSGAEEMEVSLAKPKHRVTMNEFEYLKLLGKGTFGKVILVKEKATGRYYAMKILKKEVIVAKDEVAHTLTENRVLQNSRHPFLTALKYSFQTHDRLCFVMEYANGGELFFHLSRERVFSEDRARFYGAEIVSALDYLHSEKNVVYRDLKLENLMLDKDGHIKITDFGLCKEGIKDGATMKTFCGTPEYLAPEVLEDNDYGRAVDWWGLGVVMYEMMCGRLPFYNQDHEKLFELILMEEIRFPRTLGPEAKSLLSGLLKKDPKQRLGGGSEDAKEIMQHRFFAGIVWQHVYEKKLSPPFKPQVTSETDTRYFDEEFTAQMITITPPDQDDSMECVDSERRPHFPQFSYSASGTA
GSK3β(h), sequence (P49841 whole entry): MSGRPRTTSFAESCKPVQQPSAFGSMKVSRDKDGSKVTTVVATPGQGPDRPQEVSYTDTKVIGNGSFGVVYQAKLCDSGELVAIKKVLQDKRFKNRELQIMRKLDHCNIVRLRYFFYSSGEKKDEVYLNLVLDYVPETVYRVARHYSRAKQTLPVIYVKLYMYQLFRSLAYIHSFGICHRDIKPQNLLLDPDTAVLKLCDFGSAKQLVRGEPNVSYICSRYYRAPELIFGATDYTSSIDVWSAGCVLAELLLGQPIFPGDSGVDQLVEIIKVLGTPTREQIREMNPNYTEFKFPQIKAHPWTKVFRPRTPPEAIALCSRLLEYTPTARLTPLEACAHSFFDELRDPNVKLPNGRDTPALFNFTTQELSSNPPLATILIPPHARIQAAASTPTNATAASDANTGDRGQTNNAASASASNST
CDK6/cyclinD3(h), sequence (Q00534 whole entry): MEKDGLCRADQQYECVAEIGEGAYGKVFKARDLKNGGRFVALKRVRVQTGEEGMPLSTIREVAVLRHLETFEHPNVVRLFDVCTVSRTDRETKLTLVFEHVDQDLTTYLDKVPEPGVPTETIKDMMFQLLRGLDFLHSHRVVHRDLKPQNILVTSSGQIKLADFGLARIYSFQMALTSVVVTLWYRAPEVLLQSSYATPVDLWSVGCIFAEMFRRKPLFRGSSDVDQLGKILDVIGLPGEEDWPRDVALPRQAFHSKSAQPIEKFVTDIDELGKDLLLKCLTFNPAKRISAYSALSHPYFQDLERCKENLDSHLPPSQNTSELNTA
CDK6/cyclinD3(h), sequence (P30281 whole entry partner): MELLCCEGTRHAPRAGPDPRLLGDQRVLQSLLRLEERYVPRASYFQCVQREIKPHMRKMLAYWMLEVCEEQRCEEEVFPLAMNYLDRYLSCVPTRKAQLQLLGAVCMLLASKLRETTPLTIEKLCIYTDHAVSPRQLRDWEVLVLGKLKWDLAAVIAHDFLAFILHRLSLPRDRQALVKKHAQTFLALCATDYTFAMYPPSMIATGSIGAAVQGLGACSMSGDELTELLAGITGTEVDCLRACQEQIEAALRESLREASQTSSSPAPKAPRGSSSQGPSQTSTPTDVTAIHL

Substance: H-YARAAARQARAKALARQLGVAA-OH [MMI-0100]
- activity at 100 µM (IR(h), activated): 127%
- activity at 100 µM (MINK(h)): 96%
- activity at 100 µM (PrKX(h)): 84%

Substance: HRRIKAWLKKIKALARQLGVAA (Mammalian) [MMI-0500]
- % activity (CDK6/cyclinD3(h)): 23%
- % activity (Fyn(h)): 83%
- % activity (MST1(h)): 3%
- % activity (GSK3β(h)): 238%
- % activity (PKBα(h)): 30%
- % activity (IR(h), activated; 100 μM): 90%
- % activity (Lyn(h)): 31%
- % activity (FAK(h)): 94%
- % activity (PKCϵ(h)): 23%
- % activity (NEK11(h)): 2%
- % activity (PKCβI(h)): 1%
- % activity (MINK(h); 100 μM): 5%
- % activity (PrKX(h); 100 μM): 57%

Substance: YARAAARQARAKALNRQLGVA (Mammalian) [MMI-0200]
- % activity (CDK6/cyclinD3(h)): 100%
- % activity (Fyn(h)): 75%
- % activity (MST1(h)): 72%
- % activity (GSK3β(h)): 132%
- % activity (PKBα(h)): 110%
- % activity (Lyn(h)): 98%
- % activity (FAK(h)): 110%
- % activity (PKCϵ(h)): 98%
- % activity (NEK11(h)): 95%
- % activity (PKCβI(h)): 98%
